Patent US20180133288A1 (ILDONG PHARM, published 2018)

T1: semaphorin 3A (UniProt Q14563 21-771, limits assumed)
T1 construct: also called Sema3A; Sema3A ligand
T1 sequence (looked up): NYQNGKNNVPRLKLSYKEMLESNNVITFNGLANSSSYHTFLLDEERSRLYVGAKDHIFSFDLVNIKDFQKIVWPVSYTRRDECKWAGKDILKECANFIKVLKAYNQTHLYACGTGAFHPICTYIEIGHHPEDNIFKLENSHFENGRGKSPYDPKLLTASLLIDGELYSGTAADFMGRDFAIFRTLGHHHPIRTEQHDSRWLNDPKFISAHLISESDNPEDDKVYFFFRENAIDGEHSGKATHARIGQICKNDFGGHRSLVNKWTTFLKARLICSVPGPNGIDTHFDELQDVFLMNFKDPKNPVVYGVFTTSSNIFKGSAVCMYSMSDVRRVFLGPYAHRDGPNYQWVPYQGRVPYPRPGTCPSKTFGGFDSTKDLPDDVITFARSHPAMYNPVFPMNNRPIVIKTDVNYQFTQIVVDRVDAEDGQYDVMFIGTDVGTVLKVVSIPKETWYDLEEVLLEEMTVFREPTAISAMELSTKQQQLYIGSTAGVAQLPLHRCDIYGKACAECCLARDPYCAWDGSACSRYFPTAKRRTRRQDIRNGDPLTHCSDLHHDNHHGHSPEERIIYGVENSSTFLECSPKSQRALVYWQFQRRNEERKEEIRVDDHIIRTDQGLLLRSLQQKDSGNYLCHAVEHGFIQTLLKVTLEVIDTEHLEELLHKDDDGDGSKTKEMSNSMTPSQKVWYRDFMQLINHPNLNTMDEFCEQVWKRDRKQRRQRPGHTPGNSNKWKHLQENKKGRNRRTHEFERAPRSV

B1: neuropilin 1 receptor (receptor, UniProt O14786 273-586, looked up)
chain: FKCMEALGMESGEIHSDQITASSQYSTNWSAERSRLNYPENGWTPGEDSYREWIQVDLGLLRFVTAVGTQGAISKETKKKYYVKTYKIDVSSNGEDWITIKEGNKPVLFQGNTNPTDVVVAVFPKPLITRFVRIKPATWETGISMRFEVYGCKITDYPCSGMLGMVSGLISDSQITSSNQGDRNWMPENIRLVTSRSGWALPPAPHSYINEWLQIDLGEEKIVRGIIIQGGKHRENKVFMRKFKIGYSNNGSDWKMIMDDSKRKAKSFEGNNNYDTPELRTFPALSTRFIRIYPERATHGGLGLRMELLGCEVE
notes: The construct is not defined; The same entry is used for the SPR and ELISA experiments; also called NRP1; NRP 1

Experiments:
semaphorin 3A = molecular target: T1, semaphorin 3A; experiment: SPR (Biacore 2000), neuropilin 1 domain fixed on CM5 chip, semaphorin 3A as analyte 1 uM to 62.5 nM
Method: (§1) First, the affinity to a neuropilin receptor was performed on neuropilin 1 (NRP 1). Specifically, surface plasmon resonance (SPR) was performed using Biacore 2000 (GE Healthcare) in order to investigate the binding ability of TPP to the neuropilin 1 domain. Specifically, each neuropilin 1 domain was diluted in 10 mM Na-acetate buffer (pH 4.0), and fixed on CMS sensor chip (GE Healthcare, USA) at about 1,000 response units (RU). […] After the association/dissociation analysis, the CMS chip was regenerated by allowing buffer (20mM NaOH, 1M NaCl, pH 10.0) to flow at a flow rate of 30 μl/min for 1 minute.

neuropilin 1 receptor = molecular target: B1; experiment: SPR (Biacore 2000), neuropilin 1 domain fixed on CM5 chip, VEGF165 as analyte 80 nM to 5 nM
Method: as §1

Row | Kd (semaphorin 3A) | Kd (neuropilin 1 receptor) | Binder
1 | 27.9 nM | – | B1
2 | – | 3.51 nM | VEGF165 (ligand, UniProt P15692-4 27-191, looked up) APMAEGGGQNHHEVVKFMDVYQRSYCHPIETLVDIFQEYPDEIEYIFKPSCVPLMRCGGCCNDEGLECVPTEESNITMQIMRIKPHQGQHIGEMSFLQHNKCECRPKKDRARQENPCGPCSERRKHLFVQDPQTCKCSCKNTDSRCKARQLELNERTCRCDKPRR
